# Values joined by “and” are separate entries in the source; they are usually repeats but may differ in a detail not shown here. Identical values can stand only once.
# T1: HIV-1 Vpr (WT), expressed from pNL4-3unc (HIV-1 (NL4-3-based proviral plasmid)), P12520
# T1 chain: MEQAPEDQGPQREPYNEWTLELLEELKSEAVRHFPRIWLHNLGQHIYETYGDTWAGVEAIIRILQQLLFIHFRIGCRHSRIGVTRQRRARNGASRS
# How the values were obtained:
# [1] = molecular target: HIV-1 Vpr (WT), expressed from pNL4-3unc (UniProt P12520); assay: immunoblot of virions (Vpr incorporation, Vpr/CA ratio, LI-COR quantification); details: equivalent RT units of virus concentrated by ultracentrifugation through a sucrose cushion; parent: est. 100; read off a plot
# [2] = molecular target: HIV-1 Gag p6 Mutant 11 (LXXL to alanines) (HIV-1 (NL4-3-based proviral plasmid)) (UniProt P12493); assay: virion incorporation (virions pelleted through sucrose, immunoblot); virus from 293T cells transfected with pNL4-3unc proviral plasmids (Gag and Vpr from the same construct); concentrated through a 20% (w/v) sucrose cushion, 2 h, 10,000 g, 4°C; equivalent RT units on SDS-PAGE; anti-Vpr and anti-CA immunoblot; Vpr/CA ratio relative to WT virions (LI-COR)
# [3] = molecular target: HIV-1 Gag p6 Mutant 4 (FRFG to alanines) (HIV-1 (NL4-3-based proviral plasmid)) (UniProt P12493); assay: as above
# [4] = molecular target: HIV-1 Gag with WT p6, expressed from pNL4-3unc (HIV-1 (NL4-3-based proviral plasmid)) (UniProt P12493); assay: as above
# [5] = molecular target: HIV-1 Gag p6 Mutant 12 (alanine substitutions in the LXXLF motif) (HIV-1 (NL4-3-based proviral plasmid)) (UniProt P12493); assay: as above
# [6] = molecular target: T1, HIV-1 Vpr (WT), expressed from …; assay: cross-linking; virions pelleted through sucrose, 1% formaldehyde in PBS 20 min at room temperature, quenched with 250 mM Tris-HCl pH 7.5, pelleted again through sucrose, SDS-PAGE and anti-Vpr immunoblot; details: remark: other sources report otherwise
Molecule,percent of parent [1] [% WT],further results
"HIV-1 Gag with WT p6, expressed from pNL4-3unc (from UniProt P12493) R4A; P5A; E6A",85,–
"HIV-1 Gag with WT p6, expressed from pNL4-3unc (from UniProt P12493) P37A; L38A; S40A",62,–
"HIV-1 Gag with WT p6, expressed from pNL4-3unc (from UniProt P12493) K27A; Q28A; E29A; P30A",93,–
HIV-1 Vpr L67A (from UniProt P12520 1-96) (natural protein),–,fold lower Vpr packaging than the same p6 mutant with WT Vpr [2]: > 10 fold; fold lower Vpr packaging than the same p6 mutant with WT Vpr [3]: > 10 fold; fold reduction of Vpr incorporation against WT Vpr [4]: 2 fold
"HIV-1 Gag with WT p6, expressed from pNL4-3unc (from UniProt P12493) E19A; E20A; T21A; T22A",52,–
"HIV-1 Gag with WT p6, expressed from pNL4-3unc (from UniProt P12493) E34A; L35A; Y36A",73,–
"HIV-1 Gag with WT p6, expressed from pNL4-3unc (from UniProt P12493) P11A; E12A; E13A; S14A",62,–
"HIV-1 Gag with WT p6, expressed from pNL4-3unc (from UniProt P12493) P49A; S50A; S51A; Q52A",76,–
"HIV-1 Gag with WT p6, expressed from pNL4-3unc (from UniProt P12493) T23A; P24A; S25A; Q26A",59,–
"HIV-1 Gag with WT p6, expressed from pNL4-3unc (from UniProt P12493) I31A; D32A; K33A",90,–
"HIV-1 Vpr (WT), expressed from pNL4-3unc (from UniProt P12520 1-96) (natural protein)",–,"Vpr incorporated, % of WT virions (Vpr/CA ratio) [2]: < 30%; Vpr incorporated, % of WT virions (Vpr/CA ratio) [5]: < 30%; Vpr incorporated, % of WT virions (Vpr/CA ratio) [3]: < 30%"
"HIV-1 Vpr (WT), expressed from pNL4-3unc, P12520 1-96 (natural protein) MEQAPEDQGPQREPYNEWTLELLEELKSEAVRHFPRIWLHNLGQHIYETYGDTWAGVEAIIRILQQLLFIHFRIGCRHSRIGVTRQRRARNGASRS",–,stoichiometry N [6]: 2 and 3

# — article PMC8354229
